Test results as given in the supplement of paper PMC9112550, “Optimization of the antimicrobial peptide Bac7 by deep mutational scanning” (BMC Biology, 2022).

Tested on: Escherichia coli TOP10
Assay: shrunken log2 fold change of peptide-encoding DNA abundance (4.5 h post-induction vs induction); higher = less antimicrobial activity (less host growth inhibition)
Conditions: time post-induction: 4.5 h; library: site-saturation at positions 5, 18, 19, 20
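Note: peptides expressed intracellularly from a pBAD plasmid library in pooled LB shake-flask culture, induced with 0.3% L-arabinose, DNA abundance read by NGS, three biological replicates, DESeq2 with apeglm shrinkage.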

Sequence	shrunken log2 fold change
RRIRCRPPRLPRPRPRPGLPPRP	0.143
RRIRFRPPRLPRPRPRPMDPPRP	0.0482
RRIRTRPPRLPRPRPRPQYMPRP	-1.01
RRIRTRPPRLPRPRPRPDDPPRP	-0.00805
RRIRVRPPRLPRPRPRPDAHPRP	0.21
RRIRSRPPRLPRPRPRPVPVPRP	0.362
RRIRYRPPRLPRPRPRPMSPPRP	-0.0952
RRIRARPPRLPRPRPRPHAIPRP	0.0503
RRIRERPPRLPRPRPRPPVVPRP	-0.0806
RRIRQRPPRLPRPRPRPFFQPRP	-0.0889
RRIRHRPPRLPRPRPRPHRVPRP	0.0179
RRIRLRPPRLPRPRPRPHCNPRP	-0.363
RRIRRRPPRLPRPRPRPRVLPRP	0.349
RRIRARPPRLPRPRPRPYCFPRP	-0.178
RRIRIRPPRLPRPRPRPTNQPRP	-0.28
RRIRDRPPRLPRPRPRPIDAPRP	-0.264
RRIRQRPPRLPRPRPRPDMEPRP	0.104
RRIRKRPPRLPRPRPRPFFYPRP	0.0957
RRIRTRPPRLPRPRPRPTESPRP	-0.0539
RRIRHRPPRLPRPRPRPEGNPRP	-0.0642
RRIRTRPPRLPRPRPRPGECPRP	-0.258
RRIRCRPPRLPRPRPRPQPKPRP	0.273
RRIRGRPPRLPRPRPRPASQPRP	0.76

Sequence	shrunken log2 fold change
RRIRQRPPRLPRPRPRPTCEPRP	0.0552
RRIRRRPPRLPRPRPRPEAPPRP	0.708
RRIRPRPPRLPRPRPRPQHCPRP	-0.0861
RRIRDRPPRLPRPRPRPKWGPRP	0.105
RRIRCRPPRLPRPRPRPIHKPRP	-0.638
RRIRWRPPRLPRPRPRPEVPPRP	0.0568
RRIRFRPPRLPRPRPRPENRPRP	-0.0215
RRIRWRPPRLPRPRPRPIKHPRP	-0.2
RRIRIRPPRLPRPRPRPDSLPRP	-0.163
RRIRFRPPRLPRPRPRPLMCPRP	-0.328
RRIRHRPPRLPRPRPRPFIDPRP	-0.121
RRIRRRPPRLPRPRPRPKREPRP	0.304
RRIRVRPPRLPRPRPRPWTTPRP	0.115
RRIRTRPPRLPRPRPRPNWRPRP	0.176
RRIRYRPPRLPRPRPRPARHPRP	0.0712
RRIRRRPPRLPRPRPRPHFDPRP	0.216
RRIRARPPRLPRPRPRPDGGPRP	0.432
RRIRYRPPRLPRPRPRPSNNPRP	-1.42
RRIRRRPPRLPRPRPRPMGWPRP	0.637
RRIRKRPPRLPRPRPRPTIDPRP	0.128
RRIRIRPPRLPRPRPRPFKMPRP	-0.568
RRIRKRPPRLPRPRPRPRWTPRP	0.347
RRIRRRPPRLPRPRPRPELVPRP	0.27

Sequence	shrunken log2 fold change
RRIRYRPPRLPRPRPRPQHNPRP	-1.13
RRIRVRPPRLPRPRPRPGMMPRP	0.135
RRIRARPPRLPRPRPRPEIFPRP	0.273
RRIRLRPPRLPRPRPRPYIEPRP	-0.176
RRIRRRPPRLPRPRPRPVTKPRP	0.28
RRIRARPPRLPRPRPRPECSPRP	1
RRIRFRPPRLPRPRPRPAQNPRP	0.348
RRIRNRPPRLPRPRPRPVMHPRP	0.077
RRIRARPPRLPRPRPRPEGMPRP	1.2
RRIRSRPPRLPRPRPRPSSKPRP	-0.219
RRIRFRPPRLPRPRPRPIGQPRP	0.00854
RRIRPRPPRLPRPRPRPLCGPRP	0.623
RRIRFRPPRLPRPRPRPIIVPRP	-0.394
RRIRIRPPRLPRPRPRPSNMPRP	-0.353
RRIRCRPPRLPRPRPRPRHQPRP	0.18
RRIRLRPPRLPRPRPRPNNFPRP	-0.184
RRIRIRPPRLPRPRPRPNGYPRP	-0.0764
RRIRVRPPRLPRPRPRPICPPRP	-0.0804
RRIRSRPPRLPRPRPRPRGCPRP	0.383
RRIRNRPPRLPRPRPRPGWTPRP	0.0174
RRIRLRPPRLPRPRPRPDWVPRP	-0.0945
RRIRHRPPRLPRPRPRPHCSPRP	-0.124
RRIRIRPPRLPRPRPRPDYFPRP	0.197

Sequence	shrunken log2 fold change
RRIRTRPPRLPRPRPRPSQTPRP	-0.169
RRIRERPPRLPRPRPRPMWEPRP	0.169
RRIRKRPPRLPRPRPRPGFKPRP	-0.0198
RRIRARPPRLPRPRPRPYQKPRP	-0.0277
RRIRPRPPRLPRPRPRPKEYPRP	-0.356
RRIRLRPPRLPRPRPRPPYFPRP	-0.247
RRIRLRPPRLPRPRPRPWSVPRP	-0.0834
RRIRIRPPRLPRPRPRPEPRPRP	0.563
RRIRSRPPRLPRPRPRPFSGPRP	-0.134
RRIRMRPPRLPRPRPRPHFMPRP	-0.127
RRIRQRPPRLPRPRPRPWARPRP	-0.0405
RRIRTRPPRLPRPRPRPHHGPRP	-0.0105
RRIRQRPPRLPRPRPRPEKEPRP	-0.0081
RRIRNRPPRLPRPRPRPVMSPRP	0.0178
RRIRHRPPRLPRPRPRPFPLPRP	-0.0682
RRIRTRPPRLPRPRPRPEKRPRP	-0.0149
RRIRRRPPRLPRPRPRPQPPPRP	0.413
RRIRYRPPRLPRPRPRPGECPRP	-0.489
RRIRHRPPRLPRPRPRPGIGPRP	-0.0787
RRIRWRPPRLPRPRPRPSAIPRP	-0.201
RRIRYRPPRLPRPRPRPVLVPRP	-0.507
RRIRVRPPRLPRPRPRPCAVPRP	0.218
